The text below walks through data of the supplement of paper PMC5998384.

Data set [1] has as its system HeLa Kyoto. In words: melting temperature (median over replicates), in situ; higher = more thermally stable.
For data set [2], the system named is HeLa Kyoto. As to the kind of experiment: thermal stability score vs G1/S (z-score of summed log2 fold changes over temperatures); higher = more thermally stable than in G1/S.
Data set [3] deals with HeLa Kyoto. As to the kind of experiment: solubility change mitosis vs G1/S (difference of NP-40 vs SDS log2 ratios) (log2 ratio difference); higher = more soluble in mitosis.
For data set [4], the system named is HeLa Kyoto. As to the kind of experiment: solubility in G1/S (NP-40 vs SDS abundance) (log2 ratio); higher = more soluble. As to conditions: cell cycle stage: G1/S.
Setting [5] is: cell cycle stage: early G1 (4.5 h after nocodazole release).
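Wherever melting temperature (median over replicates), in situ is given: HeLa Kyoto cells synchronized by double thymidine or nocodazole block, proteins quantified by TMT10plex mass spectrometry, three independent biological replicates.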
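Wherever solubility change mitosis vs G1/S (difference of NP-40 vs SDS log2 ratios) is given: synchronized HeLa Kyoto cells (double thymidine block for G1/S, nocodazole release for mitosis), protein amounts in NP-40 versus SDS lysates quantified by mass spectrometry, three biological replicates.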
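Wherever solubility in G1/S (NP-40 vs SDS abundance) is given: HeLa Kyoto cells arrested at G1/S by double thymidine block, proteins quantified by TMT10plex mass spectrometry in mild NP-40 versus SDS extracts, three biological replicates.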
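Wherever thermal stability score vs G1/S (z-score of summed log2 fold changes over temperatures) is given: synchronized HeLa Kyoto cells, proteins quantified by TMT10plex mass spectrometry, three biological replicates, mitosis taken 0.5 h after nocodazole release, G1/S directly after double thymidine block.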

As for “MSSQSHPDGLSGRDQPVELLNPARVNHMPSTVDVATALPLQVAPSAVPMDLRLDHQFSLPVAEPALREQQLQQELLALKQKQQIQRQILIAEFQRQHEQLSRQHEAQLHEHIKQQQEMLAMKHQQELLEHQRKLERHRQEQELEKQHREQKLQQLKNKEKGKESAVASTEVKMKLQEFVLNKKKALAHRNLNHCISSDPRYWYGKTQHSSLDQSSPPQSGVSTSYNHPVLGMYDAKDDFPLRKTASEPNLKLRSRLKQKVAERRSSPLLRRKDGPVVTALKKRPLDVTDSACSSAPGSGPSSPNNSSGSVSAENGIAPAVPSIPAETSLAHRLVAREGSAAPLPLYTSPSLPNITLGLPATGPSAGTAGQQDAERLTLPALQQRLSLFPGTHLTPYLSTSPLERDGGAAHSPLLQHMVLLEQPPAQAPLVTGLGALPLHAQSLVGADRVSPSIHKLRQHRPLGRTQSAPLPQNAQALQHLVIQQQHQQFLEKHKQQFQQQQLQMNKIIPKPSEPARQPESHPEETEEELREHQALLDEPYLDRLPGQKEAHAQAGVQVKQEPIESDEEEAEPPREVEPGQRQPSEQELLFRQQALLLEQQRIHQLRNYQASMEAAGIPVSFGGHRPLSRAQSSPASATFPVSVQEPPTKPRFTTGLVYDTLMLKHQCTCGSSSSHPEHAGRIQSIWSRLQETGLRGKCECIRGRKATLEELQTVHSEAHTLLYGTNPLNRQKLDSKKLLGSLASVFVRLPCGGVGVDSDTIWNEVHSAGAARLAVGCVVELVFKVATGELKNGFAVVRPPGHHAEESTPMGFCYFNSVAVAAKLLQQRLSVSKILIVDWDVHHGNGTQQAFYSDPSVLYMSLHRYDDGNFFPGSGAPDEVGTGPGVGFNVNMAFTGGLDPPMGDAEYLAAFRTVVMPIASEFAPDVVLVSSGFDAVEGHPTPLGGYNLSARCFGYLTKQLMGLAGGRIVLALEGGHDLTAICDASEACVSALLGNELDPLPEKVLQQRPNANAVRSMEKVMEIHSKYWRCLQRTTSTAGRSLIEAQTCENEEAETVTAMASLSVGVKPAEKRPDEEPMEEEPPL [HDAC4]”, the melting temperature was 53.3 °C with HeLa Kyoto [1] (cell cycle stage: G1/S) and 52.9 °C in the data set on HeLa Kyoto [1] (cell cycle stage: mitosis). Besides, the thermal stability score is -0.241 in the data set with HeLa Kyoto [2] (setting [5]) and 0.236 with HeLa Kyoto [2] (cell cycle stage: mitosis). For the same sequence, the “solubility change mitosis (log2)” value in the data set on HeLa Kyoto [3] is -0.072. In addition, the “solubility in G1/S (log2)” value with HeLa Kyoto [4] worked out at 0.188.

For “MSSSLGKEKDSKEKDPKVPSAKEREKEAKASGGFGKESKEKEPKTKGKDAKDGKKDSSAAQPGVAFSVDNTIKRPNPAPGTRKKSSNAEVIKELNKCREENSMRLDLSKRSIHILPSSIKELTQLTELYLYSNKLQSLPAEVGCLVNLMTLALSENSLTSLPDSLDNLKKLRMLDLRHNKLREIPSVVYRLDSLTTLYLRFNRITTVEKDIKNLSKLSMLSIRENKIKQLPAEIGELCNLITLDVAHNQLEHLPKEIGNCTQITNLDLQHNELLDLPDTIGNLSSLSRLGLRYNRLSAIPRSLAKCSALEELNLENNNISTLPESLLSSLVKLNSLTLARNCFQLYPVGGPSQFSTIYSLNMEHNRINKIPFGIFSRAKVLSKLNMKDNQLTSLPLDFGTWTSMVELNLATNQLTKIPEDVSGLVSLEVLILSNNLLKKLPHGLGNLRKLRELDLEENKLESLPNEIAYLKDLQKLVLTNNQLTTLPRGIGHLTNLTHLGLGENLLTHLPEEIGTLENLEELYLNDNPNLHSLPFELALCSKLSIMSIENCPLSHLPPQIVAGGPSFIIQFLKMQGPYRAMV [SHOC2]”, the results for the melting temperature in the data set on HeLa Kyoto [1] (cell cycle stage: G1/S) and in the data set on HeLa Kyoto [1] (cell cycle stage: mitosis) were 52.2 °C and 52.4 °C, respectively. For the same sequence, the figures for the thermal stability score with HeLa Kyoto [2] (setting [5]) and in the data set with HeLa Kyoto [2] (cell cycle stage: mitosis) were -0.46 and -1.35, respectively. In the data set with HeLa Kyoto [3], the “solubility change mitosis (log2)” value was -0.0856. The “solubility in G1/S (log2)” value with HeLa Kyoto [4] is 0.421.

For the sequence “MSSSPVKRQRMESALDQLKQFTTVVADTGDFHAIDEYKPQDATTNPSLILAAAQMPAYQELVEEAIAYGRKLGGSQEDQIKNAIDKLFVLFGAEILKKIPGRVSTEVDARLSFDKDAMVARARRLIELYKEAGISKDRILIKLSSTWEGIQAGKELEEQHGIHCNMTLLFSFAQAVACAEAGVTLISPFVGRILDWHVANTDKKSYEPLEDPGVKSVTKIYNYYKKFSYKTIVMGASFRNTGEIKALAGCDFLTISPKLLGELLQDNAKLVPVLSAKAAQASDLEKIHLDEKSFRWLHNEDQMAVEKLSDGIRKFAADAVKLERMLTERMFNAENGK [TALDO1]”, the melting temperature stood at 54.4 °C in the data set on HeLa Kyoto [1] (cell cycle stage: G1/S) and 52.5 °C in the data set on HeLa Kyoto [1] (cell cycle stage: mitosis). The thermal stability score was -7.63 in the data set on HeLa Kyoto [2] (setting [5]) and -3.31 with HeLa Kyoto [2] (cell cycle stage: mitosis). Further, in the data set with HeLa Kyoto [3], the “solubility change mitosis (log2)” value is -0.00294. The “solubility in G1/S (log2)” value in the data set on HeLa Kyoto [4] is 0.572.

In the case of “MSSSVEQKKGPTRQRKCGFCKSNRDKECGQLLISENQKVAAHHKCMLFSSALVSSHSDNESLGGFSIEDVQKEIKRGTKLMCSLCHCPGATIGCDVKTCHRTYHYHCALHDKAQIREKPSQGIYMVYCRKHKKTAHNSEADLEESFNEHELEPSSPKSKKKSRKGRPRKTNFKGLSEDTRSTSSHGTDEMESSSYRDRSPHRSSPSDTRPKCGFCHVGEEENEARGKLHIFNAKKAAAHYKCMLFSSGTVQLTTTSRAEFGDFDIKTVLQEIKRGKRMKCTLCSQPGATIGCEIKACVKTYHYHCGVQDKAKYIENMSRGIYKLYCKNHSGNDERDEEDEERESKSRGKVEIDQQQLTQQQLNGN [PHF6]”, the melting temperature came to 48.6 °C in the data set on HeLa Kyoto [1] (cell cycle stage: G1/S) and 50.6 °C in the data set on HeLa Kyoto [1] (cell cycle stage: mitosis). Moreover, the thermal stability score in the data set with HeLa Kyoto [2] (setting [5]) is 1.18; in the data set on HeLa Kyoto [2] (cell cycle stage: mitosis) it was 1.95. For the same sequence, in the data set with HeLa Kyoto [3], the “solubility change mitosis (log2)” value turned out to be 0.284. For the same sequence, the “solubility in G1/S (log2)” value in the data set with HeLa Kyoto [4] is -0.717.

Take “MSSTSPNLQKAIDLASKAAQEDKAGNYEEALQLYQHAVQYFLHVVKYEAQGDKAKQSIRAKCTEYLDRAEKLKEYLKNKEKKAQKPVKEGQPSPADEKGNDSDGEGESDDPEKKKLQNQLQGAIVIERPNVKWSDVAGLEGAKEALKEAVILPIKFPHLFTGKRTPWRGILLFGPPGTGKSYLAKAVATEANNSTFFSISSSDLVSKWLGESEKLVKNLFQLARENKPSIIFIDEIDSLCGSRSENESEAARRIKTEFLVQMQGVGVDNDGILVLGATNIPWVLDSAIRRRFEKRIYIPLPEPHARAAMFKLHLGTTQNSLTEADFRELGRKTDGYSGADISIIVRDALMQPVRKVQSATHFKKVRGPSRADPNHLVDDLLTPCSPGDPGAIEMTWMDVPGDKLLEPVVSMSDMLRSLSNTKPTVNEHDLLKLKKFTEDFGQEG [VPS4B]”: the melting temperature in the data set with HeLa Kyoto [1] (cell cycle stage: G1/S) stood at 50.5 °C; in the data set on HeLa Kyoto [1] (cell cycle stage: mitosis), 50.2 °C. For the same sequence, the thermal stability score with HeLa Kyoto [2] (setting [5]) amounted to 0.98; with HeLa Kyoto [2] (cell cycle stage: mitosis), 1.43. In addition, the “solubility change mitosis (log2)” value with HeLa Kyoto [3] was -0.125. For the same sequence, in the data set on HeLa Kyoto [4], the “solubility in G1/S (log2)” value worked out at 0.414.

As for “MSSVSPIQIPSRLPLLLTHEGVLLPGSTMRTSVDSARNLQLVRSRLLKGTSLQSTILGVIPNTPDPASDAQDLPPLHRIGTAALAVQVVGSNWPKPHYTLLITGLCRFQIVQVLKEKPYPIAEVEQLDRLEEFPNTCKMREELGELSEQFYKYAVQLVEMLDMSVPAVAKLRRLLDSLPREALPDILTSIIRTSNKEKLQILDAVSLEERFKMTIPLLVRQIEGLKLLQKTRKPKQDDDKRVIAIRPIRRITHISGTLEDEDEDEDNDDIVMLEKKIRTSSMPEQAHKVCVKEIKRLKKMPQSMPEYALTRNYLELMVELPWNKSTTDRLDIRAARILLDNDHYAMEKLKKRVLEYLAVRQLKNNLKGPILCFVGPPGVGKTSVGRSVAKTLGREFHRIALGGVCDQSDIRGHRRTYVGSMPGRIINGLKTVGVNNPVFLLDEVDKLGKSLQGDPAAALLEVLDPEQNHNFTDHYLNVAFDLSQVLFIATANTTATIPAALLDRMEIIQVPGYTQEEKIEIAHRHLIPKQLEQHGLTPQQIQIPQVTTLDIITRYTREAGVRSLDRKLGAICRAVAVKVAEGQHKEAKLDRSDVTEREGCREHILEDEKPESISDTTDLALPPEMPILIDFHALKDILGPPMYEMEVSQRLSQPGVAIGLAWTPLGGEIMFVEASRMDGEGQLTLTGQLGDVMKESAHLAISWLRSNAKKYQLTNAFGSFDLLDNTDIHLHFPAGAVTKDGPSAGVTIVTCLASLFSGRLVRSDVAMTGEITLRGLVLPVGGIKDKVLAAHRAGLKQVIIPRRNEKDLEGIPGNVRQDLSFVTASCLDEVLNAAFDGGFTVKTRPGLLNSKL [LONP2]”, the melting temperature in the data set on HeLa Kyoto [1] (cell cycle stage: G1/S) came to 52.3 °C; with HeLa Kyoto [1] (cell cycle stage: mitosis), 52.1 °C. In addition, the thermal stability score in the data set with HeLa Kyoto [2] (setting [5]) amounted to 0.257; in the data set with HeLa Kyoto [2] (cell cycle stage: mitosis), 0.49. For the same sequence, in the data set on HeLa Kyoto [3], the “solubility change mitosis (log2)” value is -0.132. In addition, the “solubility in G1/S (log2)” value in the data set with HeLa Kyoto [4] turned out to be 0.0116.
